From patent US20190322724A1 (RESEARCH FOUNDATION FOR THE STATE UNIVERSITY OF NEW YORK, published 2019) come the findings set out here.

For this assay, the target named is T1, endogenous secreted MMP-2 in conditioned media of SYF and SYF+c-Src mouse embryonic fibroblast cells (mouse (endogenous protein of mouse …, UniProt P33434 30-662, limits assumed)).
T1 construct: also called endogenous secreted MMP-2 in SYF CM
As to the kind of experiment: Ni-NTA pulldown from SYF CM, immunoblot. (In general: A western blot detects proteins with antibodies after separation by electrophoresis.)

T1 sequence (P33434 30-662 limits assumed): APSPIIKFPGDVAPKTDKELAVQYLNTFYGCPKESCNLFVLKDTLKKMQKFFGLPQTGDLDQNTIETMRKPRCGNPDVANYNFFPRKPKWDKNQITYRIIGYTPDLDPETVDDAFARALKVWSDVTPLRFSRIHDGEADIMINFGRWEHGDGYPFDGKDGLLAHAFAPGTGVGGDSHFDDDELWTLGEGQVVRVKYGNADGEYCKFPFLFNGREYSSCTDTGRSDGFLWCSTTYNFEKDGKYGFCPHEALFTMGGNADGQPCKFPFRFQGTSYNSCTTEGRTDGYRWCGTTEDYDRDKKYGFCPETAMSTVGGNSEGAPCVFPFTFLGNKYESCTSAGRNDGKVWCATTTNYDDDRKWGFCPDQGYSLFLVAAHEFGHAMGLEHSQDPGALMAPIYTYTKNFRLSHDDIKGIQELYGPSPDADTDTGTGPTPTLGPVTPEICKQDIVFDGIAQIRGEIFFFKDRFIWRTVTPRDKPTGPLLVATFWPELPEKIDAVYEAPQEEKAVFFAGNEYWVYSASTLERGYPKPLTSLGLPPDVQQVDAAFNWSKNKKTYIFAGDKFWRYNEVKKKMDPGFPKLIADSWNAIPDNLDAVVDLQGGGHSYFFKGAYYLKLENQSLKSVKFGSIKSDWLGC
Protocol: Pulldown and co-pulldown experiments were performed from CM and immunoblots were followed. […] Data represent three independent experiments.
Equal amounts of isolated cell extract proteins were incubated with HisPur Ni-NTA Resin (ThermoScientific) for 2 hours at 4° C. Immunopellets were washed 4 times with fresh lysis buffer (20 mM HEPES pH 7.0, 100 mM NaCl, 1 mM MgCl2, 0.1% NP40, protease inhibitor cocktail (Roche) and PhosSTOP (Roche)). […] Pulldowns were also performed using conditioned media concentrated ˜10× using Amicon Ultra 10K centrifugal filters (Millipore) according to the manufacturer's protocol. HiPur Ni-NTA Resin was used to pulldown His6-tagged TIMP-2 from concentrated conditioned media. Briefly, HisPur Ni-NTA Resin was washed 3 times by vortexing resin with 0.1% NP40 lysis buffer and pipetting off supernatant. Concentrated conditioned media was combined with washed HisPur Ni-NTA Resin, and placed on rotator at 4° C. for 1 hour. Wash step was repeated 4 times with 1% NP40 buffer+150 mM NaCl to reduce non-specific binding of proteins to resin. 5× protein loading buffer was added to resin and boiled for 5 minutes.

B1: TIMP-2 Y62F/Y90F/Y165F-His6 (other)
chain: CSCSPVHPQQAFCNADVVIRAKAVSEKEVDSGNDIFGNPIKRIQYEIKQIKMFKGPEKDIEFIFTAPSSAVCGVSLDVGGKKEYLIAGKAEGDGKMHITLCDFIVPWDTLSTTQKKSLNHRYQMGCECKITRCPMIPCFISSPDECLWMDWVTEKNINGHQAKFFACIKRSDGSCAWYRGAAPPKQEFLDIEDPHHHHHH
notes: also called TF; triple F mutant
With B1, the binding result is on record as “no binding”.
